Test results as given in patent publication US20050182242A1, “Global analysis of protein activities using proteome chips” (priority 2001, published 2005).

B1: RPL9B: yeast GST-HisX6 fusion protein on proteome chip (protein, UniProt P51401 1-191, looked up)
Large ribosomal subunit …: MKYIQTEQQIEIPEGVTVSIKSRIVKVVGPRGTLTKNLKHIDVTFTKVNNQLIKVAVHNGDRKHVAALRTVKSLVDNMITGVTKGYKYKMRYVYAHFPINVNIVEKDGAKFIEVRNFLGDKKIRNVPVRDGVTIEFSTNVKDEIVLSGNSVEDVSQNAADLQQICRVRNKDIRKFLDGIYVSHKGFIVEDM
modifications: GST-HisX6 tag
notes: yeast GST-HisX6 fusion protein on proteome chip
B2: GFD1: yeast GST-HisX6 fusion protein on proteome chip (protein, UniProt Q04839 1-188, looked up)
mRNA transport factor GFD1: MPLESIWADAPDEEPIKKQKPSHKRSNNNKKNNNSRWSNESSSNNKKKDSVNKVKNNKGNHESKTKNKIKETLPREKKPPHSQGKISPVSESLAINPFSQKATEISPPPVSPSKMKTTKTQSKQDTASKMKLLKKKIEEQREILQKTHHKNQQQQVLMDFLNDEGSSNWVDDDEEELILQRLKTSLKI
modifications: GST-His6 tag
notes: as for B1
B3: DFG5: yeast GST-HisX6 fusion protein on proteome chip (protein, UniProt Q05031 27-437, looked up)
Mannan …: MDLDTTSKTSICDATALIQGGMLDYYEGTRYGGTVGMFQSPYYWWHAGEAFGGMLENWFLCENDTYQELLYDALLAQTGSNYDYIPSNQTMVEGNDDQGIWGITVMGAVERNFTDPGDGKPGWLAMVQAVFNTMYSRWDSEHCGGGLRWQIFTWNSGYNYKNTVSNACLFQIAARLGRYTGNTTYLEVAEQVFDWLVDVGYVVLNDTANVFDGAEIDTNCTDITKIEWTYNHGIVLGGLAYMYNATNGTGEWETSLTKILNGAKSYFFKDSIMYESACQDYGTCNTDQRTFKSIFSRMLGLTSVMAPFTRDTIDDLIKTSAEAAAKSCNGGTDGHTCGLNWQKQTNDGYYGLGEQMSALEVIQNLLIHDRPAPYKEDNGGTSKGDANAGMNSSTTNVLQNNLNIKKGDRAG
modifications: GST-His6 tag
notes: as for B1
B4: CCT8: yeast GST-HisX6 fusion protein on proteome chip (protein, UniProt P47079 1-568, looked up)
T-complex protein 1 subunit …: MSLRLPQNPNAGLFKQGYNSYSNADGQIIKSIAAIRELHQMCLTSMGPCGRNKIIVNHLGKIIITNDAATMLRELDIVHPAVKVLVMATEQQKIDMGDGTNLVMILAGELLNVSEKLISMGLSAVEIIQGYNMARKFTLKELDEMVVGEITDKNDKNELLKMIKPVISSKKYGSEDILSELVSEAVSHVLPVAQQAGEIPYFNVDSIRVVKIMGGSLSNSTVIKGMVFNREPEGHVKSLSEDKKHKVAVFTCPLDIANTETKGTVLLHNAQEMLDFSKGEEKQIDAMMKEIADMGVECIVAGAGVGELALHYLNRYGILVLKVPSKFELRRLCRVCGATPLPRLGAPTPEELGLVETVKTMEIGGDRVTVFKQEQGEISRTSTIILRGATQNNLDDIERAIDDGVAAVKGLMKPSGGKLLPGAGATEIELISRITKYGERTPGLLQLAIKQFAVAFEVVPRTLAETAGLDVNEVLPNLYAAHNVTEPGAVKTDHLYKGVDIDGESDEGVKDIREENIYDMLATKKFAINVATEAATTVLSIDQIIMAKKAGGPRAPQGPRPGNWDQED
modifications: GST-His6 tag
notes: as for B1
B5: CAM1: yeast GST-HisX6 fusion protein on proteome chip (protein, UniProt P29547 2-415, looked up)
Elongation factor 1-gamma 1: SQGTLYANFRIRTWVPRGLVKALKLDVKVVTPDAAAEQFARDFPLKKVPAFVGPKGYKLTEAMAINYYLVKLSQDDKMKTQLLGADDDLNAQAQIIRWQSLANSDLCIQIANTIVPLKGGAPYNKKSVDSAMDAVDKIVDIFENRLKNYTYLATENISLADLVAASIFTRYFESLFGTEWRAQHPAIVRWFNTVRASPFLKDEYKDFKFADKPLSPPQKKKEKKAPAAAPAASKKKEEAKPAATETETSSKKPKHPLELLGKSTFVLDDWKRKYSNEDTRPVALPWFWEHYNPEEYSLWKVTYKYNDELTLTFMSNNLVGGFFNRLSASTKYMFGCLVVYGENNNNGIVGAVMVRGQDYVPAFDVAPDWESYDYAKLDPTNDDDKEFINNMWAWDKPVSVNGEPKEIVDGKVLK
modifications: GST-His6 tag
notes: as for B1
B6: MPD2: yeast GST-HisX6 fusion protein on proteome chip (protein, UniProt Q99316 23-277, looked up)
Protein disulfide isomerase …: YSEAVTMVKSIEQYFDICNRNDSYTMIKYYTSWCQHCKTLAPVYEELGELYAKKANKDDTPINFLEVNCEFFGPTLCTDLPGFPIIELVKPRTKPLVLPKLDWSSMKFHERLWQRIKTWFNNPKYQLDTSRVVRFEGSRNLKSLSNFIDTVRSKDTEERFIEHIFDDSRNCNEELRSQQLLCKAGKEYYSDTLSKLYGDVNGLEKERRRLEALIKQNGDDLSKEVKEKLKIIRLQLSLLSHIEDQLEDTSSHDEL
modifications: GST-His6 tag
notes: as for B1
B7: DIN7: yeast GST-HisX6 fusion protein on proteome chip (protein, UniProt Q12086 1-430, looked up)
DNA damage-inducible protein …: MGIPGLLPQLKRIQKQVSLKKYMYQTLAIDGYAWLHRASCACAFELVMNKPTNKYLQFFIKRLQLLKRLKIKPYIVFDGDSLFVKNHTETRRRKKRLENEMIAKKLWSAGNRYNAMEYFQKSVDITPEMAKCIIDYCKLHSIPYIVAPFEADPQMVYLEKMGLIQGIISEDSDLLVFGCKTLITKLNDQGKALEISKDDFSALPENFPLGELSEQQFRNLVCLAGCDYTSGIWKVGVVTAMKIVKRYSEMKDILIQIERTEKLCFSKAFKQQVEFANYAFQYQRVFCPLSNQITTLNNIPKAVTNSHAEIIKIMKCIGSVVERGSGVRKDVINTKNIDHKVHEMIAKGELHPVDMASKLINRERKLKARKLFKVGLLGGESNSFNKKVEQPLVDTQDVLSERENSLDNKNASSIYMTSPAAISGTVPSIF
modifications: GST-His6 fusion tag
notes: as for B1

What follows are molecules tested on phosphatidylcholine (PC) liposomes (assay: Yeast proteome chip probed with PC liposomes). Settings: liposome binding signal on yeast proteome chip, Cy3-streptavidin detection.
Excerpt: (§1) To identify PI-binding proteins in yeast, liposomes were used as probes because the liposome provides the most relevant physiological condition to assay the interactors. Six types of liposomes were used. Each contains phosphatidylcholine (“PC”) with 1% (w/w) N-(biotinoyl)-1,2-dihexadecanoyl-sn-glycero-3-phosphoethanolamine, triethylammonium salt (biotin DHPE). The biotinylated lipid serves as a label that can be detected by Cy3-streptavidin (21). In addition to PC, the five other liposomes contain either 5% (w/w) PI(3)P, PI(4)P, PI(3,4)P2, PI(4,5)P2, or PI(3,4,5)P3 (FIG. 3A).
(§2) The protein-liposome interaction was assayed as follows. Appropriate amounts of each lipid in chloroform were mixed and dried under nitrogen. The lipid mixture was resuspended in TBS buffer by vortexing. The liposomes were created by sonication. Blocked proteome chips were washed three to five times in PBS buffer, and the extra liquid on the glass surface was removed by tapping the slides vertically on a KIMWIPE™. 200 μl of liposome solution was added to the proteome chip and immediately covered by a hydrophobic plastic cover slip (GRACE BIO-LAB™, USA). After trapped air bubbles were removed, the chip was incubated in a humidity chamber at RT for one hour. To remove the cover slip, the chip was immersed into large volume of PBS buffer (50 ml), so that the slip would float away. The chip was then moved to a second PBS bath (>50 ml) and washed 3×5 min with shaking at RT. After removing extra liquid on the surface of the chip, about 100 μl of Cy3 or Cy5 conjugated streptavidin (PIERCE™, USA; 1:2000 to 1:4000 dilution) was added to the surface and covered by a hydrophobic plastic cover slip (GRACE BIO-LABS™, USA). The chip was incubated for greater than 30 min in the dark at RT. The chip was then washed as described above. To completely remove the liquid on the chip, the chip was spun to dryness at 1500-2000 rpm for 5-10 min at RT.
(§3) • 1. S. Fields, Y. Kohara, D. J. Lockhart, Proc. Natl. Acad. Sci. 96, 8825 (1999); A. Goffeau et al., Science 274, 563 (1996). • 2 P. Ross-Macdonald et al., Nature 402, 413 (1999); J. L., DeRisi, V. R. Iyer, P. O. Brown, Science 278, 680 (1997); E. A. Winzeler et al., Science 285, 901 (1999). P. Uetz et al., Nature 403, 623 (2000); T. Ito et al., Proc. Natl. Acad. Sci. USA. 97, 1143 (2000) • 3 H. Zhu, M. Snyder, Curr. Opin. Chem. Biol. 5, 40 (2001). • 4 M. R. Martzen et al., Science 286, 1153 (1999). • 5 H. Zhu et al., Nat. Genet. 26, 283 (2000). • 6 G. MacBeath, S. L. Schreiber, Science 289, 1760 (2000). • 7 A. Caveman, J. Cell Sci. 113, 3543 (2000). • 8 P. Arenkov et al., Anal. Biochem 278, 123 (2000). • 9 D. A. Mitchell, T. K. Marshall, R. J. Deschenes, Yeast 9, 715 (1993). The expression vector pEGH was created by inserting an RGS-HisX6 epitope tag between the GST gene and the polycloning site of pEG(KG). The yeast ORFs were cloned using the strategy described previously (5), except every step was done in a 96-well format. Plasmid DNAs confirmed by DNA sequencing were reintroduced into both yeast (Y258) and E. coli (DH5a). […] 0.1 mM calcium was present in buffers in all subsequent steps. The chip was washed three times with PBS at RT. Cy3-conjugated streptavidin (Jackson IR, USA) (1:5000 dilution) was added to the chip and incubated for 30 min at RT. After extensive washing, the chip was spun dry and scanned using a microarray scanner; the data was subsequently acquired with the GENEPIX™ array densitometry software (Axon, USA). • 12 S. S. Hook, A. R. Means, Annu. Rev. Pharmacol. Toxicol.41, 471 (2001). • 13 M. S. Cyert, R. Kunisawa, D. Kaim, J. Thorner, Proc. Natl. Acad. Sci. USA 88, 7376 (1991). • 14 D. A. Stirling, K. A. Welch, M. J. Stark, EMBO J. 13, 4329 (1994). • 15 F. Bohl, Kruse, EMBO J. 19, 5514 (2000); E. Bertrand et al., Mol. Cell 2, 437 (1998). • 16 D. C. Winter, E. Y. Choe, R. Li, Proc. Nat. Acad Sci. USA 96, 7288 (1999). • 17 C.
Molecule B1 has a PC of 6.46. With B2 the PC was 4.99. With B3 the PC was 127.66. Work on B4 yielded a PC of 22.30. In the case of B5, the PC is reported as 18.49. Molecule B6 has a PC of 25.24. Work on B7 yielded a PC of 21.42.

These molecules were tested on PI(3,4,5)P3 liposomes (assay: Yeast proteome chip probed with PI(3,4,5)P3 liposomes). Settings: liposome binding signal on yeast proteome chip, Cy3-streptavidin detection.
Excerpt: as §1, §2, §3
For B1, the “PI(3, 4, 5)P3” value was −0.45. For B2, the “PI(3, 4, 5)P3” value was 3.38. B3 was tested, and the “PI(3, 4, 5)P3” value was 60.98. In the case of B4, the “PI(3, 4, 5)P3” value is reported as 33.97. For B5, the “PI(3, 4, 5)P3” value was 4.16. For B6, the “PI(3, 4, 5)P3” value was 15.07. In the case of B7, the “PI(3, 4, 5)P3” value is reported as 14.06.

The molecules below were run on PI(3,4)P2 liposomes (assay: Yeast proteome chip probed with PI(3,4)P2 liposomes). Settings: liposome binding signal on yeast proteome chip, Cy3-streptavidin detection.
Excerpt: as §1, §2, §3
In the case of B1, the “PI(3, 4)P2” value is reported as 7.38. In the case of B2, the “PI(3, 4)P2” value is reported as −0.78. With B3 the “PI(3, 4)P2” value was 48.66. For B4, the “PI(3, 4)P2” value was 7.53. For B5, the “PI(3, 4)P2” value was −0.16. With B6 the “PI(3, 4)P2” value was 31.71. In the case of B7, the “PI(3, 4)P2” value is reported as 10.05.

Each molecule was assayed on PI(4,5)P2 liposomes (assay: Yeast proteome chip probed with PI(4,5)P2 liposomes). Settings: liposome binding signal on yeast proteome chip, Cy3-streptavidin detection.
Excerpt: as §1, §2, §3
With B1 the “PI(4, 5)P2” value was 1.96. For B5, the “PI(4, 5)P2” value was 25.69. B6 was tested, and the “PI(4, 5)P2” value was 8.71. With B7 the “PI(4, 5)P2” value was 14.59.

The molecules below were run on PI(4)P liposomes (assay: Yeast proteome chip probed with PI(4)P liposomes). Settings: liposome binding signal on yeast proteome chip, Cy3-streptavidin detection.
Excerpt: as §1, §2, §3
With B1 the “PI(4)P” value was 12.85. In the case of B2, the “PI(4)P” value is reported as −0.22. In the case of B3, the “PI(4)P” value is reported as 19.81. B4 was tested, and the “PI(4)P” value was 23.52. In the case of B5, the “PI(4)P” value is reported as 21.99. For B6, the “PI(4)P” value was 37.45. In the case of B7, the “PI(4)P” value is reported as 33.75.
